{
  "source": "paper PMC11844651",
  "about": "“How RAG1/2 evolved from ancestral transposases to initiate V(D)J recombination without transposition” (Research Square, 2025)",
  "binders": {"B1": {"name": "mouse T490A RAG2 (aa 1–520) (natural protein, UniProt P21784 1-520, looked up)", "chain": "MSLQMVTVGHNIALIQPGFSLMNFDGQVFFFGQKGWPKRSCPTGVFHFDIKQNHLKLKPAIFSKDSCYLPPLRYPATCSYKGSIDSDKHQYIIHGGKTPNNELSDKIYIMSVACKNNKKVTFRCTEKDLVGDVPEPRYGHSIDVVYSRGKSMGVLFGGRSYMPSTQRTTEKWNSVADCLPHVFLIDFEFGCATSYILPELQDGLSFHVSIARNDTVYILGGHSLASNIRPANLYRIRVDLPLGTPAVNCTVLPGGISVSSAILTQTNNDEFVIVGGYQLENQKRMVCSLVSLGDNTIEISEMETPDWTSDIKHSKIWFGSNMGNGTIFLGIPGDNKQAMSEAFYFYTLRCSEEDLSEDQKIVSNSQTSTEDPGDSTPFEDSEEFCFSAEATSFDGDDEFDTYNEDDEDDESVTGYWITCCPTCDVDINTWVPFYSTELNKPAMIYCSHGDGHWVHAQCMDLEERTLIHLSEGSNKYYCNEHVQIARALQAPKRNPPLQKPPMKSLHKKGSGKVLTPAKKS"}},
  "target": "T1, mouse RAG1 (aa 265–1040) (mouse, UniProt P15919 265-1040)",
  "T1 sequence (looked up)": "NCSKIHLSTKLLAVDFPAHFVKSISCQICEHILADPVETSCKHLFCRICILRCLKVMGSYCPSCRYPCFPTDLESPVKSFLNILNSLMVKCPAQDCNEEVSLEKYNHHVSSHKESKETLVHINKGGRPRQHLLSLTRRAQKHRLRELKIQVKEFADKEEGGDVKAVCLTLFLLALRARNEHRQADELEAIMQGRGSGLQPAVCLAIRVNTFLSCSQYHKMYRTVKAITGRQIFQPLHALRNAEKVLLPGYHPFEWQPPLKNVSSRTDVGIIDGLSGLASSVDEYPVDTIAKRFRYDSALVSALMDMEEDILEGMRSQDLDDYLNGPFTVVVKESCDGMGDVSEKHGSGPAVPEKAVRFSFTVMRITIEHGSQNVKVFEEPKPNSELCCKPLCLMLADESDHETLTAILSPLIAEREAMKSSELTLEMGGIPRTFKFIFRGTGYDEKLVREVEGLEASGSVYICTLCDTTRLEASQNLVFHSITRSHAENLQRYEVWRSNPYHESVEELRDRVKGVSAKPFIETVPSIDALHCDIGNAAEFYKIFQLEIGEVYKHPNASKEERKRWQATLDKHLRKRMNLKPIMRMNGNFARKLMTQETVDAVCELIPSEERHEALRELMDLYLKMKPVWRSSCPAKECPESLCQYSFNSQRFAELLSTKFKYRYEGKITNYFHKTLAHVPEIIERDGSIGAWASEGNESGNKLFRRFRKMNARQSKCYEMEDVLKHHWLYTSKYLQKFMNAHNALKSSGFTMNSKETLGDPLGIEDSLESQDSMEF",
  "assay": "cell-based or functional assay",
  "data": [
    {"binder": "B1", "values": [
      {"measurement": "RSS DNA hairpinning (pre-nicked RSS substrates) with the long (21 aa) H3K4me3 peptide (1 μM) against no peptide", "result": "< 2", "unit": "fold"},
      {"measurement": "transposition of SEC into supercoiled pUC19 (double-ended joint product) with the long (21 aa) H3K4me3 peptide (20 μM) against no peptide", "result": 22, "unit": "fold"}
    ]}
  ]
}
